According to US20240352134A1:

What was measured:
human CCR8 (human) [1] = target: human CCR8 (human) (UniProt P51685); test: binding affinity EC50, comparison of Table 12 (FACS on CCR8-expressing cells)
human CCR8 (human) [2] = target: human CCR8 (human) (UniProt P51685); test: cell-based or functional assay

human CCR8 (human), sequence (P51685 whole entry): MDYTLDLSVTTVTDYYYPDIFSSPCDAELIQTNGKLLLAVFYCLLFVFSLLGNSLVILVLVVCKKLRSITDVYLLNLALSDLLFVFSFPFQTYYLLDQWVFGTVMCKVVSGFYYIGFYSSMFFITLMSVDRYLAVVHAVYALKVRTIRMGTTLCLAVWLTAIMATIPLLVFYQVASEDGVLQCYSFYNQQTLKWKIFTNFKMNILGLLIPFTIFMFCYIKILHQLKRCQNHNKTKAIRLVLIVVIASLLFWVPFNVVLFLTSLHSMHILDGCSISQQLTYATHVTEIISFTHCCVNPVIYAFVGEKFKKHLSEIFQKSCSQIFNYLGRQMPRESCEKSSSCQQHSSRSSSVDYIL

EC50 (human CCR8 (human) [1]) [nM]	Signal block Ca2+ (human CCR8 (human) [2]) [nM]	Substance
0.243		S-531011 (antibody)
0.29	4.34	GS-1811 (antibody)
